{"source": "the DeepSol protein solubility set", "data": [{"test": "soluble on expression in E. coli; label from the status in PepcDB or PDB records", "values": [{"sequence": "MGSSHHHHHHGGTGENLYFQGGSGNRIDISNFDFLYVIGKGTYGIVYKALDKKENNFVAIKKIINLCDENYGISKCILRELTILQKIKHKNIINLKYVFYGKDIEDKLKGENLENSCLYLAFEYCDIDLFNLIKKHNLNIKEIKYIIFELLLALSYFHSNNYIHRDIKPENIFITSEGEIKLGDLGMSVEKSDHMTPTVVTLWYRAPEILLKSTNYDQKVDIWSLGCLFMELIQGRPLFPGKNDCTQLELIYLLLGDKDKLTTVDKERKDMFPYFEINMLKDAIDDEHTLDLISKMLIYDPNYRISSKEALKHPCFQDIEQVKFSYNF", "soluble on expression in E. coli": "not soluble"}, {"sequence": "MGSSHHHHHHGKTIFVIVPTNEEQVAFLEALAKQDELNFDWQNPPTEPGQPVVILIPSDMVEWFLEMLKAKGIPFTVYVEEGGSENLYFQGGGGGGFYVRTPGKRLLEDKVGKDGLSHYSSEFSSRSSSAELKESRASKCSTTTKRSFAENAAGGTADSSKSHRSMPEVVSAQSQHSKTTGSHKRD", "soluble on expression in E. coli": "soluble"}, {"sequence": "MGSSHHHHHHHHDYDIPTTENLYFQGSELSSLTAVSPVDGRYGDKVSALRGIFSEYGLLKFRVQVEVRWLQKLAAHAAIKEVPAFAADAIGYLDAIVANFSEEDAARIKTIERTTNHDVKAVEYFLKEKVAEIPELHAVSEFIHFACTSEDINNLSHALMLKTARDEVILPYWRQLIDGIKDLAVQYRDIPLLSRTHGQPATPSTIGKEMANVAYRMERQYRQLNQVEILGKINGAVGNYNAHIAAYPEVDWHQFSEEFVTSLGIQWNPYTTQIEPHDYIAELFDCVARFNTILIDFDRDVWGYIALNHFKQKTIAGEIGSSTMPHKVNPIDFENSEGNLGLSNAVLQHLASKLPVSRWQRDLTDSTVLRNLGVGIGYALIAYQSTLKGVSKLEVNRDHLLDELDHNWEVLAEPIQTVMRRYGIEKPYEKLKELTRGKRVDAEGMKQFIDGLALPEEEKARLKAMTPANYIGRAITMVDELK", "soluble on expression in E. coli": "soluble"}, {"sequence": "MGSSHHHHHHSSGLVPAGSHMASMTGGQQMGRGSMSLQVNLLNNTFANPFMNAAGVMCTTTEELVAMTESASGSLVSKSCTPALREGNPTPRYQALPLGSINSMGLPNNGFDFYLAYAAEQHDYGKKPLFLSMSGLSMRENVEMCKRLAAVATEKGVILELNLSCPNVPGKPQVAYDFDAMRQCLTAVSEVYPHSFGVKMPPYFDFAHFDAAAEILNEFPKVQFITCINSIGNGLVIDAETESVVIKPKQGFGGLGGRYVLPTALANINAFYRRCPGKLIFGCGGVYTGEDAFLHVLAGASMVQVGTALQEEGPSIFERLTSELLGVMAKKRYQTLDEFRGKVRTLDGTAESTR", "soluble on expression in E. coli": "soluble"}, {"sequence": "MGSSHHHHHHSSGLVPRGSHMAASTVAGELGLSITGLGVQYPPYSLGPDAIDILSKRYHPESPAMKKVLAINRYTGIDQRSSIGNPDHPLVNKPNPPTVKELHEVFMSDGVPLAVEASRKAMAEARLVPAQITHMVSTTCTDSANPGYDHYVAKELGLSDRLEKVLLHGIGCSGGLAALRTAANLCLGHTARGKPARILVLALEVSTTMVRSELESIDALQETRIGIALFSDCASAVILSNGIGEAPGKPAIYDLLGWENRVIPDSEHDLGFDVDPMGWKVVLSPRVPVLAKASLQPTYADLLSSLQDQLPSSYQKPADFDWAMHPGGATILSGAESAMGLTPEHMRASYDRYINHGNSSSATIFSVLNRLREKDMDALAPGGKVKEYVVGCAFGPGINVEMCMLKRRMNAPARTTTGLDTPPETDDSEGPGPGSSAGSDDGESIEGGEKEEKFINEALDNVELD", "soluble on expression in E. coli": "soluble"}, {"sequence": "MGSSHHHHHHSSGLVPRGSHMAPSRRERERERRREQIIRAAEKAFFARGYDRVTMDEIAEEAEVNKALLYYYFKNKESLFFAVNLYGVRILHSMYRRCLELDTDGYGKVRAMVEALYSFSKEHPDYFRIYCYSGTERFELSESEDAREIVDLRTGMWRLMVEAIMEGMNDGSIRSDLDPVELSIYIHTLAINALNLDFTSRMVLEARNISRDRFWEDLEVFLESALRP", "soluble on expression in E. coli": "soluble"}, {"sequence": "MGSSHHHHHHSSGLVPRGSHMDAETVGRVKRFIQENVFVAANHNGSPLSIKEAPKELSFGARAELPRIHPVASKLLRLMQKKETNLCLSADVSLARELLQLADALGPSICMLKTHVDILNDFTLDVMKELITLAKCHEFLIFEDRKFADIGNTVKKQYEGGIFKIASWADLVNAHVVPGSGVVKGLQEVGLPLHRGCLLIAEMSSTGSLATGDYTRAAVRMAEEHSEFVVGFISGSRVSMKPEFLHLTPGVQLEAGGDNLGQQYNSPQEVIGKRGSDIIIVGRGIISAADRLEAAEMYRKAAWEAYLSRLGV", "soluble on expression in E. coli": "soluble"}, {"sequence": "MGSSHHHHHHSSGLVPRGSHMEHAFTPLEPLLPTGNLKYCLVVLNQPLDARFRHLWKKALLRACADGGANHLYDLTEGERESFLPEFVSGDFDSIRPEVKEYYTKKGCDLISTPDQDHTDFTKCLQVLQRKIEEKELQVDVIVTLGGLGGRFDQIMASVNTLFQATHITPVPIIIIQKDSLIYLLQPGKHRLHVDTGMEGSWCGLIPVGQPCNQVTTTGLKWNLTNDVLGFGTLVSTSNTYDGSGLVTVETDHPLLWTMAIKS", "soluble on expression in E. coli": "soluble"}, {"sequence": "MGSSHHHHHHSSGLVPRGSHMETADLKSLAKRIYEAYLKNFNMNKVKARVILSGKASNNPPFVIHDMETLCMAEKTLVAKLVANGIQNKEAEVRIFHCCQCTSVETVTELTEFAKAIPGFANLDLNDQVTLLKYGVYEAIFAMLSSVMNKDGMLVAYGNGFITREFLKSLRKPFCDIMEPKFDFAMKFNALELDDSDISLFVAAIICCGDRPGLLNVGHIEKMQEGIVHVLRLHLQSNHPDDIFLFPKLLQKMADLRQLVTEHAQLVQIIKKTESDAALHPLLQEIYRDMY", "soluble on expression in E. coli": "soluble"}, {"sequence": "MGSSHHHHHHSSGLVPRGSHMFKPKKKLGQCFLIDKNFVNKAVESANLTKDDVVLEIGLGKGILTEELAKNAKKVYVIEIDKSLEPYANKLKELYNNIEIIWGDALKVDLNKLDFNKVVANLPYQISSPITFKLIKRGFDLAVLMYQYEFAKRMVAAAGTKDYGRLSVAVQSRADVEIVAKVPPSAFYPKPKVYSAIVKIKPNKGKYHIENENFFDDFLRAIFQHRNKSVRKALIDSSKELNYNKDEMKKILEDFLNTNSEIKNLINEKVFKLSVKDIVNLSNEFYRFLQNRGRL", "soluble on expression in E. coli": "soluble"}, {"sequence": "MGSSHHHHHHSSGLVPRGSHMISNKLANIPDSYFGKTMGRKIEHGPLPLINMAVGIPDGPTPQGIIDHFQKALTIPENQKYGAFHGKEAFKQAIVDFYQRQYNVTLDKEDEVCILYGTKNGLVAVPTCVINPGDYVLLPDPGYTDYLAGVLLADGKPVPLNLEPPHYLPDWSKVDSQIIDKTKLIYLTYPNNPTGSTATKEVFDEAIAKFKGTDTKIVHDFAYGAFGFDAKNPSILASENGKDVAIEIYSLSKGYNMSGFRVGFAVGNKDMIQALKKYQTHTNAGMFGALQDAAIYALNHYDDFLEEQSNVFKTRRDRFEAMLAKADLPFVHAKGGIYVWLETPPGYDSEQFEQFLVQEKSILVAPGKPFGENGNRYVRISLALDDQKLDEAAIRLTELAYLYE", "soluble on expression in E. coli": "soluble"}, {"sequence": "MGSSHHHHHHSSGLVPRGSHMLEDPMEQPINVLNDFHPLNEAGKILIKHPSLAERKDEDGIHWIKSQWDGKWYPEKFSDYLRLHKIVKIPNNSDKPELFQTYKDKNNKRSRYMGLPNLKRANIKTQWTREMVEEWKKCRDDIVYFAETYCAITHIDYGVIKVQLRDYQRDMLKIMSSKRMTVCNLSRQLGKTTVVAIFLAHFVCFNKDKAVGILAHKGSMSAEVLDRTKQAIELLPDFLQPGIVEWNKGSIELDNGSSIGAYASSPDAVRGNSFAMIYIEDCAFIPNFHDSWLAIQPVISSGRRSKIIITTTPNGLNHFYDIWTAAVEGKSGFEPYTAIWNSVKERLYNDEDIFDDGWQWSIQTINGSSLAQFRQEHTAAFEGTSGTLISGMKLAVMDFIEVTPDDHGFHQFKKPEPDRKYIATLDCSEGRGQDYHALHIIDVTDDVWEQVGVLHSNTISHLILPDIVMRYLVEYNECPVYIELNSTGVSVAKSLYMDLEYEGVICDSYTDLGMKQTKRTKAVGCSTLKDLIEKDKLIIHHRATIQEFRTFSEKGVSWAAEEGYHDDLVMSLVIFGWLSTQSKFIDYADKDD", "soluble on expression in E. coli": "soluble"}, {"sequence": "MGSSHHHHHHSSGLVPRGSHMVNKRMSMVVSGLTPEEFMLVYKFARKHHITLTNLITEETTHVVMKTDAEFVCERTLKYFLGIAGGKWVVSYFWVTQSIKERKMLNEHDFEVRGDVVNGRNHQGPKRARESQDRKIFRGLEICCYGPFTNMPTDQLEWMVQLCGASVVKELSSFTLGTGVHPIVVVQPDAWTEDNGFHAIGQMCEAPVVTREWVLDSVALYQCQELDTYLIPQIP", "soluble on expression in E. coli": "soluble"}, {"sequence": "MGSSHHHHHHSSGLVPRGSHQPALAAEPAQLRIGYQKAVSSLVLAKQHRLLEQRFPRTKITWVEFPAGPQLLEALNVGSIDLGGAGDIPPLFAQAAGADLLYVGWVPPTPKAETILVPSKSALRTVADLKGKRIAFQKGSSAHNLLLRVLAKSGLSMRDITPLYLSPANARAAFAAGQVDAWAIWDPWYSALTLDGSARLLANGEGLGLTGGFFLSSRRYATAWGPFVQQVMGTLNQADGLLERDRAGSIKTLAQVSGLPPAVVERTLAHRPPASVQPLSAQVIKAQQATADLFYAQRLLPKRVLVAPAVWRAPDAGTAQAVSK", "soluble on expression in E. coli": "soluble"}, {"sequence": "MGSSHHHHHHSSGLVPRGSSGHVGLRNLGNTCFLNAVLQCLSSTRPLRDFCLRRDFRQEVPGGGRAQELTEAFADVIGALWHPDSCEAVNPTRFRAVFQKYVPSFSGYSQQDAQEFLKLLMERLHLEINRRGRRAPPILANGPVPSPPRRGGALLEEPELSDDDRANLMWKRYLEREDSKIVDLFVGQLKSCLKCQACGYRSTTFEVFCDLSLPIPKKGFAGGKVSLRDCFNLFTKEEELESENAPVCDRCRQKTRSTKKLTVQRFPRILVLHLNRFSASRGSIKKSSVGVDFPLQRLSLGDFASDKAGSPVYQLYALCNHSGSVHYGHYTALCRCQTGWHVYNDSRVSPVSENQVASSEGYVLFYQLMQEPP", "soluble on expression in E. coli": "soluble"}, {"sequence": "MGSSHHHHHHSSGRENLYFQGHMSNTYQKRKASKEYGLYNQCKKLNDDELFRLLDDHNSLKRISSARVLQLRGGQDAVRLAIEFCSDKNYIRRDIGAFILGQIKICKKCEDNVFNILNNMALNDKSACVRATAIESTAQRCKKNPIYSPKIVEQSQITAFDKSTNVRRATAFAISVINDKATIPLLINLLKDPNGDVRNWAAFAININKYDNSDIRDCFVEMLQDKNEEVRIEAIIGLSYRKDKRVLSVLCDELKKNTVYDDIIEAAGELGDKTLLPVLDTMLYKFDDNEIITSAIDKLKRS", "soluble on expression in E. coli": "soluble"}, {"sequence": "MGSTSTPDSSTNRLQDKVAIITGGAGGIGETTAKLFVRYGAKVVIADIADDHGQKVCNNIGSPDVISFVHCDVTKDEDVRNLVDTTIAKHGKLDIMFGNVGVLSTTPYSILEAGNEDFKRVMDINVYGAFLVAKHAARVMIPAKKGSIVFTASISSFTAGEGVSHVYTATKHAVLGLTTSLCTELGEYGIRVNCVSPYIVASPLLTDVFGVDSSRVEELAHQAANLKGTLLRAEDVADAVAYLAGDESKYVSGLNLVIDGGYTRTNPAFPTALKHGLA", "soluble on expression in E. coli": "soluble"}, {"sequence": "MGTRNVRPGDRISAAIVAITDDSVFVATGSKVDGVIDRRELEEADGSLPYAVGDRVDLYVTAVNGQEIRLSKGLSGQGGAAVLEEARDSGVPVEGRVTGTCKGGYNVDVLRKRAFCPGSQIDLHQLEDAESVVGQTFQFLVTRVEQHGRNIVVSRRALLERERDAALATFLEGVKEGDVLEGTVTRLAPFGAFVEIAPGVDGMVLEHHHHHH", "soluble on expression in E. coli": "soluble"}]}]}
